“Also recorded” adds a separate entry of the source.
Experiments:
purified DNA-PKcs = molecular target: T1, purified DNA-PKcs (Homo sapiens, UniProt P78527); experiment: GST pull-down with purified DNA-PKcs; format: binding; details: for effect of DNA or EtBr on binding of purified DNA-PKcs: 20 ng/μl sonicated calf thymus DNA or 0.2 mg/ml EtBr; for salt dependence of interaction with homogeneous DNA-PKcs: 50 mM to 150 mM KCl; for interaction with purified DNA-PKcs: 120 mM KCl, silver-staining
T1 construct: The starting material for purification of DNA-PKcs was HeLa NE; host or cells: HeLa nuclear extract; purified in house over Q Sepharose, heparin agarose, phenyl Sepharose and Mono-S
T1 sequence (P78527 whole entry): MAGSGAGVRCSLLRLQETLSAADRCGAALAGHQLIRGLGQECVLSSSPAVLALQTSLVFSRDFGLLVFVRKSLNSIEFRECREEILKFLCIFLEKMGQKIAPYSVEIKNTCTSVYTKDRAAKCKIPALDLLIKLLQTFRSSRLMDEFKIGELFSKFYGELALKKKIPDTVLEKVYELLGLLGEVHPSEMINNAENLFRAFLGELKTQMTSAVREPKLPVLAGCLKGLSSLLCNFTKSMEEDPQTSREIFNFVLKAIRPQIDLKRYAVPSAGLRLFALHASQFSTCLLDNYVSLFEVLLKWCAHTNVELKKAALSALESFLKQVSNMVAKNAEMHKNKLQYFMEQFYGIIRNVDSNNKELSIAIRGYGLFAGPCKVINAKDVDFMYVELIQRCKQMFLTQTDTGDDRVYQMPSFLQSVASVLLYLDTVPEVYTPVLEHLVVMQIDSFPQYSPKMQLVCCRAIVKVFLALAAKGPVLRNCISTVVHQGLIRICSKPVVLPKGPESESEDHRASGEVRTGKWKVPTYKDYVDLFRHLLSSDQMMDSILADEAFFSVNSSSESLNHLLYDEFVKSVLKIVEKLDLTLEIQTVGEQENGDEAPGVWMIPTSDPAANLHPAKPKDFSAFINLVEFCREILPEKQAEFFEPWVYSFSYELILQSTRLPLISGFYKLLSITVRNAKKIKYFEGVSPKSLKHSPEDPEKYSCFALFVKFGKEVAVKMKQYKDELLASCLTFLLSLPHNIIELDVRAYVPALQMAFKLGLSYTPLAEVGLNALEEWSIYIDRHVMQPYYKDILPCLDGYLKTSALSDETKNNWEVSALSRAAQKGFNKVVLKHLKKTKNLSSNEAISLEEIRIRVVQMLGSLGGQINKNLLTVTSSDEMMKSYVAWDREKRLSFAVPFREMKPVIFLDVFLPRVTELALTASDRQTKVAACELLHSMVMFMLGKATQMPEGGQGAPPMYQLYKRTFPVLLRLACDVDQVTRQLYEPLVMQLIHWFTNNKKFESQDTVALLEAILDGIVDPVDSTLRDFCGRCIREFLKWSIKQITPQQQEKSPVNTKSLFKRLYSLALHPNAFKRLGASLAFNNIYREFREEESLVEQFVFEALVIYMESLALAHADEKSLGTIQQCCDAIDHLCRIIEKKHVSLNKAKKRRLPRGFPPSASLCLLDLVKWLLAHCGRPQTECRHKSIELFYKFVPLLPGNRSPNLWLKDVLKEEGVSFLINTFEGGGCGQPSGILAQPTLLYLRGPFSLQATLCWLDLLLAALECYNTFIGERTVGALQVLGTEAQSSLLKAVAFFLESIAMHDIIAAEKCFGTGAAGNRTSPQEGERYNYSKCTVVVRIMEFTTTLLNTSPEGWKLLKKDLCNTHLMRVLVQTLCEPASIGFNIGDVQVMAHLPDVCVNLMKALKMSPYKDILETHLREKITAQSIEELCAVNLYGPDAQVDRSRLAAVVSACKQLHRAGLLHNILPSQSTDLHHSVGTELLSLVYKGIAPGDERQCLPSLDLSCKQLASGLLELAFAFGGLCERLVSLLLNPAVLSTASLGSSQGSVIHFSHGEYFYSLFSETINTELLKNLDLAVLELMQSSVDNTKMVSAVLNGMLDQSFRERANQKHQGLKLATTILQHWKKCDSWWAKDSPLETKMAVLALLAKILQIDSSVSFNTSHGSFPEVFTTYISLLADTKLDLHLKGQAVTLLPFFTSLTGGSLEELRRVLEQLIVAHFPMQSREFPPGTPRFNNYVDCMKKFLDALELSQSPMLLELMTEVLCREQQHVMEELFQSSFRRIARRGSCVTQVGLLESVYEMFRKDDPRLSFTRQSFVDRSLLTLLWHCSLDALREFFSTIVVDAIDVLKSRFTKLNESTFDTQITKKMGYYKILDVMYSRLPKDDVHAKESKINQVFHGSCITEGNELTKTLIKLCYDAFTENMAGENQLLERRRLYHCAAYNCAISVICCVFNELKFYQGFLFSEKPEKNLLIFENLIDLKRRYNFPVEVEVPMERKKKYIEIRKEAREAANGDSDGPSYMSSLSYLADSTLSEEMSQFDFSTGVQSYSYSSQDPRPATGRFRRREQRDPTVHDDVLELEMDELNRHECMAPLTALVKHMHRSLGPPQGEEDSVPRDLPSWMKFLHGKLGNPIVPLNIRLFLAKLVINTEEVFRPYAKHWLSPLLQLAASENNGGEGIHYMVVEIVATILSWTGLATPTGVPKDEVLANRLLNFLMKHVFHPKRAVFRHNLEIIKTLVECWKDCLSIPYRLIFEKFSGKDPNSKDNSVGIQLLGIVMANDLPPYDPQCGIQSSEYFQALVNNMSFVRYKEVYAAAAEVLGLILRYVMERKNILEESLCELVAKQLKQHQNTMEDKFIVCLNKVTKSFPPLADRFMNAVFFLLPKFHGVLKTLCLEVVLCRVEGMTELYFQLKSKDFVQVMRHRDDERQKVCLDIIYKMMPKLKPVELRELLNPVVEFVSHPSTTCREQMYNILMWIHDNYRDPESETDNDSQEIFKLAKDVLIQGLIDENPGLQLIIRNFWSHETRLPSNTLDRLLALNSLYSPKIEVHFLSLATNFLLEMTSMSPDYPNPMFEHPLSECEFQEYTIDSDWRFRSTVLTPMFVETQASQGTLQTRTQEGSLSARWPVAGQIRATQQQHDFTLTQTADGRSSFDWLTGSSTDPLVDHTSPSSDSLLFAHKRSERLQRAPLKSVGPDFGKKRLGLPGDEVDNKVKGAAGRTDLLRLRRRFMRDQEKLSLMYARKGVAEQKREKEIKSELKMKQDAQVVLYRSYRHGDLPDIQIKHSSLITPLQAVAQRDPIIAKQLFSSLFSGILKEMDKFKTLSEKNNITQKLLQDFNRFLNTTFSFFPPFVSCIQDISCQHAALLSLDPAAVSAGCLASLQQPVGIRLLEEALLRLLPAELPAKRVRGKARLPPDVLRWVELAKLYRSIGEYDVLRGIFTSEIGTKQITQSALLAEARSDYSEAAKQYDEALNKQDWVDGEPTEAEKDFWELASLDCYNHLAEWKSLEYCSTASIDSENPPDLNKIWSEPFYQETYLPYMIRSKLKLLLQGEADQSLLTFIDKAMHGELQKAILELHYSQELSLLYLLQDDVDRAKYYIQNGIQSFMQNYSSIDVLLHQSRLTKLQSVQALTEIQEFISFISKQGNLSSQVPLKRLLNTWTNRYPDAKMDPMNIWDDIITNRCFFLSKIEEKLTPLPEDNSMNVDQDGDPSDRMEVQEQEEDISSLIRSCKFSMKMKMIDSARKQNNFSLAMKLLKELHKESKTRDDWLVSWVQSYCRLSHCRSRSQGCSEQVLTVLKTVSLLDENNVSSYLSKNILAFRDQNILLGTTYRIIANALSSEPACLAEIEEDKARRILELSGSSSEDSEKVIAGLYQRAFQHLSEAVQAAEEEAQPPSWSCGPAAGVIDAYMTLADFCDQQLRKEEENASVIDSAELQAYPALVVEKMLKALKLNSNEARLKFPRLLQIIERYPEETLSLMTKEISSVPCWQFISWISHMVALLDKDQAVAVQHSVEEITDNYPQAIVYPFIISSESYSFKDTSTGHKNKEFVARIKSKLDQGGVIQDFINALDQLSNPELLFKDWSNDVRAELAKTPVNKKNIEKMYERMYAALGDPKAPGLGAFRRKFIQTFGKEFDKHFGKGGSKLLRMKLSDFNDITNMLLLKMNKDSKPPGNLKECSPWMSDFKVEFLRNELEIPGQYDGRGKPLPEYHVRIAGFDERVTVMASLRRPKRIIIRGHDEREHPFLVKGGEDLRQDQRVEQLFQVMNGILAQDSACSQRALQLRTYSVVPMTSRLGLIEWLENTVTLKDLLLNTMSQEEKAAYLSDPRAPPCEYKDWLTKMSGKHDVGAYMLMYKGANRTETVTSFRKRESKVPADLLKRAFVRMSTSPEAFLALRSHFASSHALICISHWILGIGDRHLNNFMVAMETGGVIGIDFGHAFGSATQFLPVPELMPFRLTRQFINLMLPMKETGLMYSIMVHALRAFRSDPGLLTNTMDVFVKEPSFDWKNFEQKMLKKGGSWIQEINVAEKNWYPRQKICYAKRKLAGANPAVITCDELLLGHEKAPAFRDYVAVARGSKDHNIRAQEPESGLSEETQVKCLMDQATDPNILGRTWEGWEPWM
Procedure: (§1) GST-Ku70 or GST-Ku80 (0.5-2.0 μg), or deletion derivative thereof, bound to Glutathione agarose beads, was incubated with ˜100 μg (10 μl) of HeLa Cell nuclear extract (NE) and 80 μl of Z′ buffer (25 mM HEPES pH 6.7, 12.5 mM MgCl2, 1 mM dithiothreitol, 0.1% Nonidet P40 (BDH), 20% Glycerol) containing the specified concentration of KCl (for example, 50 mM Z′ contains 50 mM KCl in addition to the other buffer components). Binding reactions were incubated at 4° C. for 3-4 hours and the beads recovered by centrifugation and washed 7 times in 1 ml of Buffer X (25 mM HEPES pH 6.7, 2 mM MgCl2, 1 mM Dithiothreitol, 0.4% Nonidet P40) containing the specified concentration of KCl (for example, 120 mM Buffer X contains 120 mM KCl in addition to the other buffer components). Proteins retained on the beads after washing were eluted in SDS gel-loading buffer and half of the sample subjected to polyacrylamide gel eletrophoresis and silver staining. “Pulldown” assays from purified DNA-PKcs were done as above with 400 ng of purified DNA-PKcs substituted for HeLa NE.
The starting material for purification of DNA-PKcs was HeLa NE obtained from the Computer Cell Culture Centre, Mons, Belgium. All purification steps were performed in buffer D (20 mM HEPES pH 7.6, 2 mm MgCl2, 0.2 mM EDTA, 10% Glycerol) with a specified concentration of KCl (for example 50 mM Buffer D contains 50 mM KCl in addition to the other buffer components). In a representative purification, 35 ml of HeLa NE was cleared by centrifugation and diluted to a final concentration of 50 mM Buffer D, and protease inhibitors added (Boehringer). This was loaded onto a 60 ml column of Q Sepharose (Pharmacia) and eluted in a linear salt gradient of 50-500 mM Buffer D. Under these conditions the majority of DNA-PKcs and Ku were separated into two fractions peaking at approximately 200 mM Buffer D, and 450 mM Buffer D respectively. The DNA-PKcs fraction was adjusted to 100 mM KCl using 0 mM Buffer D (salt concentration was measured by conductivity) and applied to a 10 ml column of heparin agarose (Sigma). The column was developed with a linear gradient of 100-200 mM Buffer D. The peak DNA-PKcs fraction from the heparin column was adjusted to 0.5 M ammonium sulphate and applied to a 2.5 ml column of phenyl Sepharose (Pharmacia) equilibrated in, typically, 300 mM Buffer D containing 0.5 M ammonium sulphate. Under these conditions, 100% of DNA-PKcs is retained by the column, whilst the majority of contaminating Ku flows through (as judged by western blotting using antibodies specific to the Ku subunits). The column was then washed extensively in 0 mM Buffer D containing 0.5 M ammonium sulphate, and subsequently in 0 mM Buffer D containing 0.4 M ammonium sulphate, which removes most of the remaining Ku, before applying a linear gradient of 0.4-0 M ammonium sulphate in 0 mM Buffer D. Peak DNA-PKcs fractions were dialysed into 50 mM Buffer D, applied to a 1 ml Mono-S FPLC column (Pharmacia), and eluted in a linear gradient of 50-500 mM Buffer D. Peak fractions were dialysed into 50 mM Buffer D and stored at −80° C. prior to use. The resulting protein preparation contained a single abundant polypeptide corresponding to DNA-PKcs as judged by Coomassie staining, silver staining and western blotting, with a ladder of smaller DNA-PKcs breakdown products. […] To assess the levels of Ku contamination in the DNA-PKcs preparation we carried out quantitative western blotting using Ku-specific antibodies. In these western blots, an essentially homogeneous preparation of Ku was titrated against known amounts of our DNA-PKcs preparations.
GST-Ku70 or GST-Ku80 containing glutathione agarose beads were incubated with 0.4 μg of purified DNA-PKcs under conditions of 120 mM KCl. The beads were then washed and any proteins retained on the beads were detected by silver-staining.
A control binding reaction using beads containing GST alone was also carried out. […]

DNA-PKcs = DNA-PKcs (Homo sapiens, UniProt P78527); experiment: GST pull-down from HeLa cell nuclear extract; format: binding; parameters: incubated with ˜100 μg (10 μl) of HeLa Cell nuclear extract (NE); host or cells: HeLa cell nuclear extract; details: for effect of EtBr on interaction with DNA-PKcs in HeLa nuclear extract: EtBr 0.2 mg/ml; for proteins retrieved from crude HeLa nuclear extract: washed in buffer X containing 150 mM KCl, silver-staining
DNA-PKcs, sequence (P78527 whole entry): as above
Procedure: as §1
The inventors performed pull-down assays from HeLa cell nuclear extract using GST-Ku70 or GST-Ku80 bound to glutathione agarose beads. Thus, GST-Ku70 or GST-Ku80 protein was purified on glutathione agarose beads as described above, and the beads incubated with crude HeLa cell nuclear extract and washed extensively in buffer X containing 150 mM KCl. The bound proteins were then eluted in the presence of SDS, subjected to SDS-PAGE on a 6% polyacrylamide gel and detected by silver-staining. A control binding reaction was carried out using beads containing only GST.
The inventors investigated whether the observed interactions between DNA-PKcs and the individual Ku subunits were indirect and were being mediated by DNA and/or the Ku heterodimer present in the HeLa nuclear extract. EtBr was used in a final concentration of 0.2 mg/ml in order to address the potential involvement of DNA (EtBr disrupts protein-DNA interactions).

| Substance | effect of DNA or EtBr on binding of purified DNA-PKcs (purified DNA-PKcs) | effect of DNA or EtBr on binding of purified DNA-PKcs (purified DNA-PKcs; listed as Ku70) | salt dependence of interaction with homogeneous DNA-PKcs (purified DNA-PKcs) | interaction with purified DNA-PKcs (purified DNA-PKcs) | effect of EtBr on interaction with DNA-PKcs in HeLa nuclear extract (DNA-PKcs) | proteins retrieved from crude HeLa nuclear extract (DNA-PKcs) |
| --- | --- | --- | --- | --- | --- | --- |
| GST-Ku70: full length human Ku70 fused to glutathione S-transferase, expressed in E. coli | no affect | no stimulation of binding was observed in the presence of DNA | at lower but not at higher ionic strengths, there is an interaction | very little interaction | essentially abolished by EtBr treatment | DNA-PKcs is the only protein that is retrieved |
| GST-Ku80: full length human Ku80 fused to glutathione S-transferase, expressed in E. coli | not affected by EtBr or by sheared genomic DNA; also recorded: no affect |  | still easily detectable at 150 mM KCl | interacts efficiently with purified DNA-PKcs | unaffected by EtBr | DNA-PKcs is the only protein that is retrieved |

— patent US6753151B1, “Interactions of Ku polypeptides and applications thereof” (Kudos Pharmaceuticals Limited, priority 1999, dated 2004)
